Assay results published in patent US5457092A, “Methods of promoting bone growth in mammals comprising administration of modified parathyroid hormone” (Gesellschaft fur Biotechnologische Forschung mbH (GBF), priority 1987, dated 1995).

Legend:
[1] = system: osteoblast enriched rat embryo calvaria cell cultures; test: Cyclic AMP production in rat embryo calvaria cell cultures; type: cell-based
Method: (§1) FIG. 10 is a graphical representation showing the dose dependent stimulation by bPTH (1-84) of osteoblast enriched rat embryo calvaria cell cultures. Experimental details for the determination of cyclic AMP (.quadrature.) (15 min after stimulation) and incorporation of [^3 H]thymidine into DNA ( ) and CK ( ) specific activity (24 h after stimulation) are given below. The results are means ±S.E.M., N≥5. In several cases the S.E.M. was less than the size of the symbol. Control values were: cyclic AMP, 25±5 pmol/mg of protein; DNA, 240±30 c.p.m./μg of DNA; CK, 200±20 nmol/min per mg of protein. Statistical significance of differences between treated and corresponding control groups by Student's T test: *P<0.05; **P<0.01.
(§2) Rat calvaria cultures were treated with fragments of PTH derived from the central portion of the molecule.

[2] = system: osteoblast enriched rat embryo calvaria cell cultures; test: CK specific activity in rat embryo calvaria cell cultures; type: cell-based; settings: for increase of CK activity (in words): treated for 24 h
Method: as §1, §2

[3] = system: osteoblast enriched rat embryo calvaria cell cultures; test: DNA synthesis ([3H]thymidine incorporation) in rat embryo calvaria cell cultures; type: cell-based
Method: as §1

[4] = system: ROS 17/2.8 osteoblast-like cells; test: Cyclic AMP production in ROS 17/2.8 osteoblast-like cells; type: cell-based, rat; settings: for Cyclic AMP, effect of fragment (experimental value/control value): control 29 ± 5.2 pmol/mg of protein
Method: When cultures of the widely used model for osteoblasts, the osteoblast-likeclone of rat osteosarcoma, ROS 17/2.8 (Endocrinology (Baltimore), 107 (1980) 1494-1503=12; Majeska et al.), were incubated with full-length PTH and PTH fragments (Table 4), cyclic AMP production was stimulated only by bPTH(1-84) and hPTH(1-34), whereas hPTH(25-39), hPTH(27-48), hPTH(28-48) and hPTH(34-47) were ineffective.

[5] = system: ROS 17/2.8 osteoblast-like cells; test: CK specific activity in ROS 17/2.8 osteoblast-like cells; type: cell-based, rat; settings: control 698 ± 70 nmol/min per mg of protein
[6] = system: ROS 17/2.8 osteoblast-like cells; test: DNA synthesis in ROS 17/2.8 osteoblast-like cells; type: cell-based, rat; settings: control 392 ± 58 c.p.m./μg of DNA
[7] = system: rat organs (epiphysis, diaphysis, kidney); test: CK specific activity in rat organs after i.p. injection; type: in vivo; settings: i.p., 4 h later
Method: FIG. 13 is a graph showing the time-dependent stimulation by hPTH (28-48) of CK specific activity in rat organs. Female rats (20-25 days old) were injected i.p. with hPTH-(28-48) (1.25 μg/rat). Experimental details are as described for FIG. 10. (a) Diaphysis, (b) epiphysis, (c) kidney. *P<0.05, **P<0.01 versus controls.
FIG. 14 is a graph showing the dose-dependent stimulation of CK specific activity by hPTH (1-34) in rat organs. Female rats (20-25 days old) were injected i.p. with hPTH-(1-34). At 4 h later, rats were killed and extracts were prepared and assayed as described below. Experimental details are as described for FIG. 10 (a) Diaphysis, (b) epiphysis, (c) kidney. *P<0.05, ** P<0.01 versus controls.
FIG. 15 is a graph showing the dose-dependent stimulation of CK specific activity by hPTH (28-48) in rat organs. Female rats (20-25 days old) were injected i.p. with hPTH-(28-48). Experimental details are as described for FIG. 13 (a) Diaphysis, (b) epiphysis, (c) kidney. *P<0.05, **P<0.01 versus controls.
FIG. 16 is a graph showing the […] stimulation by bPTH (1-84) of CK specific activity in rat organs. Female rats (20-25 days old) were injected i.p. with bPTH-(1-84) (3.5 μg/rat). At the times indicated, the rats were killed and the diaphyses (a) and epiphyses (b) of long bones as well as the kidneys (c) were collected and homogenized. Extracts were prepared and assayed as described below. Results are means ±S.E.M for π=5. Statistical significance of differences between treated and control groups by Student's T test: *P<0.05; **P<0.01. Note that the activity scales differ for different organs.
Kidneys, tibia and femur were excised; the epiphyses or diaphyses of the long bones were collected and washed thoroughly with cold 0.9% NaCl. The bones were split open lengthwise and the marrow was scraped out. Organs were homogenized in ice-cold buffer containing 50 mM-Tris/HCl (pH 6.8), 5 mH-magnesium acetate. 2.5 mM-dithiothreitol, 0.4 mM-EDTA and 250 mM-sucrose using a Polytron homogenizer in 10 s bursts with intervening cooling periods. Supernatant extracts were obtained by centrifugation at 12000 g for 5 min at 4° C. CK activity was measured at 30° C. in a Gilford 250 automatic recording spectrophotometer at 340 nm using a coupled assay for ATP, in 0.5 ml of incubation mixture containing 50 mM-imidazole acetate buffer (pH 6.7), 25 mM-phosphocreatine, 20 mM-N-acetylcysteine, 20 mM-D-glucose, 10 mM-magnesium acetate, 5 mM-EDTA, 2 mM-ADP, 2 mM-NAD+, 2 mM-dithiothreitol, 50 μM-diadenosine pentaphosphate (adenylate kinase inhibitor), 5 μg of bovine serum albumin. 1.2 units of glucose-6-phosphate dehydrogenase and 0.8 units of hexokinase. Protein was determined by the Coomassie Brilliant Blue dye-binding method, with bovine serum albumin as the standard.

[8] = system: rat organs (epiphysis, diaphysis, kidney); test: [3H]thymidine incorporation into DNA in rat organs after i.p. injection; type: in vivo
Method: FIG. 12 is a graph showing the time course of stimulation by hPTH (1-34) of DNA synthesis in rat organs. Female rats (20-25 days old) were injected i.p. with hPTH-(1-34) (2 μg/rat). At 2 h before the times indicated, the rats were killed and organs were removed and incubated in 2 ml of Dulbecco's modified Eagle's medium containing 5 μl of [^3 H]thymidine. (Amersham: 5 Ci/mmol) for 2 h, then washed with medium and homogenized in deionized distilled water. The total uptake of [^3 H]thymidine and acid-insoluble radioactivity was measured, as well as DNA content, as described below. , Diaphysis; O, epiphysis; Δ; kidney. P<0.01 versus controls.
The pieces were then incubated for 2 h more (the time indicated in FIG. 12) with [^3 H]thymidine (5 μci/ml; 5 Ci/mmol) at 37° C. in Dulbecco's modified Eagle's medium under an atmosphere Of […] /95% air. Total [^3 H]thymidine uptake and incorporation into trichloroacetic acid-insoluble material was measured as described in Biochem. J., 214 (1983) 293-298 (16; Somjen et al.). At no time including the 22 24 h pulse, was there any significant change in the total uptake of [^3 H]thymidine which reflects changes in the thymidine pool which, in turn, could account for changes in incorporation. DNA was determined by the Burton method; cf. Biochem. J., 62 (1956) 315-323 (17; Burton).
To corroborate that under the circumstances of these experiments the increase in CK specific activity in bone is indeed a valid marker of cell proliferation, changes in DNA synthesis were measured by [^3 H]thymidine incorporation; cf. Biochem. J., 272 (1990) 781-785 (18; Somjen et al.). The earliest time at which PTH increased [^3 H]thymidine incorporation was determined by in-jecting rats with an optimal dose of 2 μp of PTH(1-34)/rat, equivalent to 13 nM (FIG. 14) and measuring 2 h pulses of [^3 H)thymidine incorporation into DNA (FIG. 12).

[9] = system: rat organs (epiphysis, diaphysis, kidney); test: as above; type: in vivo; remark: listed apart in the source
[10] = system: rat epiphysial cartilage cell cultures; test: CK specific activity in rat epiphysial cartilage cell cultures; type: cell-based
Method: To compare the stimulations seen in osteoblast-like cells (FIGS. 10 and 11) with PTH effects in a cartilage system, cultures of rat epiphysial cartilage cells were incubated with full-length PTH and selected PTH fragments (Table 3). CK activity was stimulated by bPTH(1-84) and hPTH(28-48) but not by hPTH(25-39) or hPTH(34-47). […] The comparison between the complete molecule and the mid-regional fragment hPTH (28-48) is similar to but not identical with the results obtained for calvaria cell cultures (FIGS. 10 and 11) and in the chick sternum chondrocyte system; cf. Biochem. J., 252 (1988) 263-268 (11; Farndale et al.),

[11] = system: rat epiphysial cartilage cell cultures; test: DNA synthesis in rat epiphysial cartilage cell cultures; type: cell-based; settings: 10 nM; control 350 ± 25

Q: How did the “stimulation of cyclic AMP production (in words)” value ([1]; treated for 15 min) turn out when `CC[C@H](C)[C@H](NC(=O)[C@H](CCC(=O)O)NC(=O)[C@H](CO)NC(=O)[C@@H](NC(=O)[C@@H](N)CO)C(C)C)C(=O)N[C@@H](CCC(N)=O)C(=O)N[C@@H](CC(C)C)C(=O)N[C@@H](CCSC)C(=O)N[C@@H](Cc1c[nH]cn1)C(=O)N[C@@H](CC(N)=O)C(=O)N[C@@H](CC(C)C)C(=O)NCC(=O)N[C@@H](CCCCN)C(=O)N[C@@H](Cc1c[nH]cn1)C(=O)N[C@@H](CC(C)C)C(=O)N[C@@H](CC(N)=O)C(=O)N[C@@H](CO)C(=O)N[C@@H](CCSC)C(=O)N[C@@H](CCC(=O)O)C(=O)N[C@@H](CCCNC(=N)N)C(=O)N[C@H](C(=O)N[C@@H](CCC(=O)O)C(=O)N[C@@H](Cc1c[nH]c2ccccc12)C(=O)N[C@@H](CC(C)C)C(=O)N[C@@H](CCCNC(=N)N)C(=O)N[C@@H](CCCCN)C(=O)N[C@@H](CCCCN)C(=O)N[C@@H](CC(C)C)C(=O)N[C@@H](CCC(N)=O)C(=O)N[C@@H](CC(=O)O)C(=O)N[C@H](C(=O)N[C@@H](Cc1c[nH]cn1)C(=O)N[C@@H](CC(N)=O)C(=O)N[C@@H](Cc1ccccc1)C(=O)O)C(C)C)C(C)C` [hPTH(1-34)] was run?
A: able to stimulate cyclic AMP formation

Q: What about the “increase of CK activity (in words)” value [2] of the same molecule?
A: maximally active

Q: What about the “stimulation of DNA synthesis (in words)” value [3] of the same molecule?
A: maximal

Q: And the “stimulation of cyclic AMP production (in words)” value [4]?
A: stimulated

Q: And the “Cyclic AMP, effect of fragment (experimental value/control value)” value ([4]; 40 nM)?
A: 4.67 ± 0.09

Q: What about the “CK specific activity, effect of fragment (experimental value/control value)” value ([5]; 40 nM) of the same molecule?
A: 1.83 ± 0.09

Q: And the “[^3 H]Thymidine incorporation, effect of fragment (experimental value/control value)” value ([6]; 40 nM)?
A: 2.06 ± 0.09

Q: What about the “dose of maximal effect on CK specific activity” value [7] of the same molecule?
A: 2 μg/rat

Q: What about the “dose giving a significant increase in CK specific activity in all organs” value ([7]; diaphysis, epiphysis, kidney) of the same molecule?
A: 0.4 μg/rat

Q: And the “DNA synthesis in the kidney over time (in words)” value ([8]; 2 μg/rat, equivalent to 13 nM, 2 h pulses)?
A: no increase in DNA synthesis at any time

Q: What about the “DNA synthesis in the diaphysis and the epiphysis at 4 or 16 h (in words)” value ([8]; 2 μg/rat, 4 or 16 h) of the same molecule?
A: no change

Q: What about the “DNA synthesis in the diaphysis and the epiphysis at 24 h (in words)” value ([9]; 2 μg/rat, 24 h) of the same molecule?
A: significant increase

B1: bPTH(1-84): full-length (complete) parathyroid hormone, bovine source; comparative example (protein, UniProt P01268 32-115, looked up)
Parathyroid hormone: AVSEIQFMHNLGKHLSSMERVEWLRKKLQDVHNFVALGASIAYRDGSSQRPRKKEDNVLVESHQKSLGEADKADVDVLIKAKPQ
modifications: Parathyroid hormone
Q: Which results are given for B1?
A: Cyclic AMP concentration, effect of fragment (experimental value/control value) ([1]; 100 nM, 15 min, control 29 ± 2.9 pmol/mg of protein): 3.74 ± 0.30; CK specific activity, effect of fragment (experimental value/control value) ([2]; 100 nM, 24 h, control 457 ± 46 nmol/min per mg of protein): 2.27 ± 0.09; increase of CK activity (in words) [2]: maximally active; stimulation of DNA synthesis (in words) [3]: maximal; [3H)Thymidine incorporation, effect of fragment (experimental value/control value) ([3]; 100 nM, 24 h, control 624 ± 73 c.p.m./μg of DNA): 2.61 ± 0.11; stimulation of CK activity (in words) [10]: stimulated; CK specific activity ([10]; 10 nM, control 225 ± 32): 389 ± 39 nmol/min per mg of protein; [^3 H]Thymidine incorporation into DNA [11]: 556 ± 50 c.p.m./plate; stimulation of cyclic AMP production (in words) [4]: stimulated; Cyclic AMP, effect of fragment (experimental value/control value) ([4]; 10 nM): 4.60 ± 0.10; CK specific activity, effect of fragment (experimental value/control value) ([5]; 10 nM): 1.92 ± 0.11; [^3 H]Thymidine incorporation, effect of fragment (experimental value/control value) ([6]; 10 nM): 1.71 ± 0.18; stimulation of DNA synthesis in the kidney (in words) ([8]; 22-24 h after injection): no significant stimulation; [^3 H]thymidine incorporation into DNA, Kidney ([9]; rat, 22-24 h after injection of 3.5 μg, control 9.0 ± 2.1): 11.8 ± 2.4 c.p.m./pg of DNA; [^3 H]thymidine incorporation into DNA, Diaphysis ([9]; rat, 22-24 h after injection of 3.5 μg, control 24.1 ± 3.8): 43.4 ± 4.7 c.p.m./pg of DNA; [^3 H]thymidine incorporation into DNA, Epiphysis ([9]; rat, 22-24 h after injection of 3.5 μg, control 25.8 ± 5.2): 40.7 ± 3.3 c.p.m./pg of DNA
